This is an account of results in the supplement of paper PMC5998384.

For series [1], the system named is HeLa Kyoto. Description: melting temperature (median over replicates), in situ; higher = more thermally stable.
For series [2], the system named is HeLa Kyoto. Description: solubility change mitosis vs G1/S (difference of NP-40 vs SDS log2 ratios) (log2 ratio difference); higher = more soluble in mitosis.
Series [3] deals with HeLa Kyoto. Description: thermal stability score vs G1/S (z-score of summed log2 fold changes over temperatures); higher = more thermally stable than in G1/S.
Series [4] concerns HeLa Kyoto. Description: solubility in G1/S (NP-40 vs SDS abundance) (log2 ratio); higher = more soluble. The following applies: cell cycle stage: G1/S.
Where [5] appears, read: cell cycle stage: early G1 (4.5 h after nocodazole release).
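Wherever melting temperature (median over replicates), in situ is given: HeLa Kyoto cells synchronized by double thymidine or nocodazole block, proteins quantified by TMT10plex mass spectrometry, three independent biological replicates.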
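Wherever solubility change mitosis vs G1/S (difference of NP-40 vs SDS log2 ratios) is given: synchronized HeLa Kyoto cells (double thymidine block for G1/S, nocodazole release for mitosis), protein amounts in NP-40 versus SDS lysates quantified by mass spectrometry, three biological replicates.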
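Wherever solubility in G1/S (NP-40 vs SDS abundance) is given: HeLa Kyoto cells arrested at G1/S by double thymidine block, proteins quantified by TMT10plex mass spectrometry in mild NP-40 versus SDS extracts, three biological replicates.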
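Wherever thermal stability score vs G1/S (z-score of summed log2 fold changes over temperatures) is given: synchronized HeLa Kyoto cells, proteins quantified by TMT10plex mass spectrometry, three biological replicates, mitosis taken 0.5 h after nocodazole release, G1/S directly after double thymidine block.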

For the sequence “MKLPARVFFTLGSRLPCGLAPRRFFSYGTKILYQNTEALQSKFFSPLQKAMLPPNSFQGKVAFITGGGTGLGKGMTTLLSSLGAQCVIASRKMDVLKATAEQISSQTGNKVHAIQCDVRDPDMVQNTVSELIKVAGHPNIVINNAAGNFISPTERLSPNAWKTITDIVLNGTAFVTLEIGKQLIKAQKGAAFLSITTIYAETGSGFVVPSASAKAGVEAMSKSLAAEWGKYGMRFNVIQPGPIKTKGAFSRLDPTGTFEKEMIGRIPCGRLGTVEELANLAAFLCSDYASWINGAVIKFDGGEEVLISGEFNDLRKVTKEQWDTIEELIRKTKGS [DECR1]”, the melting temperature in the series on HeLa Kyoto [1] (cell cycle stage: G1/S) is 55.7 °C; in the series with HeLa Kyoto [1] (cell cycle stage: mitosis), 55.5 °C. Moreover, the “solubility change mitosis (log2)” value in the series with HeLa Kyoto [2] amounted to 0.263. For the same sequence, the values for the thermal stability score in the series with HeLa Kyoto [3] (setting [5]) and in the series with HeLa Kyoto [3] (cell cycle stage: mitosis) were 0.81 and -1.85, respectively. The “solubility in G1/S (log2)” value with HeLa Kyoto [4] was found to be 0.0868.
Turning to “MKPKLMYQELKVPAEEPANELPMNEIEAWKAAEKKARWVLLVLILAVVGFGALMTQLFLWEYGDLHLFGPNQRPAPCYDPCEAVLVESIPEGLDFPNASTGNPSTSQAWLGLLAGAHSSLDIASFYWTLTNNDTHTQEPSAQQGEEVLRQLQTLAPKGVNVRIAVSKPSGPQPQADLQALLQSGAQVRMVDMQKLTHGVLHTKFWVVDQTHFYLGSANMDWRSLTQVKELGVVMYNCSCLARDLTKIFEAYWFLGQAGSSIPSTWPRFYDTRYNQETPMEICLNGTPALAYLASAPPPLCPSGRTPDLKALLNVVDNARSFIYVAVMNYLPTLEFSHPHRFWPAIDDGLRRATYERGVKVRLLISCWGHSEPSMRAFLLSLAALRDNHTHSDIQVKLFVVPADEAQARIPYARVNHNKYMVTERATYIGTSNWSGNYFTETAGTSLLVTQNGRGGLRSQLEAIFLRDWDSPYSHDLDTSADSVGNACRLL [PLD3]”, the melting temperature with HeLa Kyoto [1] (cell cycle stage: G1/S) was determined as 55.7 °C; with HeLa Kyoto [1] (cell cycle stage: mitosis), 55.3 °C. The “solubility change mitosis (log2)” value with HeLa Kyoto [2] is -0.0637. Further, the thermal stability score is -2.87 in the series on HeLa Kyoto [3] (setting [5]) and -4.26 in the series on HeLa Kyoto [3] (cell cycle stage: mitosis). Further, in the series with HeLa Kyoto [4], the “solubility in G1/S (log2)” value is 0.309.
With “MKPLVVFVLGGPGAGKGTQCARIVEKYGYTHLSAGELLRDERKNPDSQYGELIEKYIKEGKIVPVEITISLLKREMDQTMAANAQKNKFLIDGFPRNQDNLQGWNKTMDGKADVSFVLFFDCNNEICIERCLERGKSSGRSDDNRESLEKRIQTYLQSTKPIIDLYEEMGKVKKIDASKSVDEVFDEVVQIFDKEG [CMPK1]”, the melting temperature in the series with HeLa Kyoto [1] (cell cycle stage: G1/S) is 51.1 °C; in the series with HeLa Kyoto [1] (cell cycle stage: mitosis), 52.2 °C. Further, in the series on HeLa Kyoto [2], the “solubility change mitosis (log2)” value came out at 0.065. For the same sequence, the values for the thermal stability score with HeLa Kyoto [3] (setting [5]) and with HeLa Kyoto [3] (cell cycle stage: mitosis) were 1.52 and 0.905, respectively. Besides, the “solubility in G1/S (log2)” value in the series on HeLa Kyoto [4] came out at 0.272.
Take “MKRPKLKKASKRMTCHKRYKIQKKVREHHRKLRKEAKKRGHKKPRKDPGVPNSAPFKEALLREAELRKQRLEELKQQQKLDRQKELEKKRKLETNPDIKPSNVEPMEKEFGLCKTENKAKSGKQNSKKLYCQELKKVIEASDVVLEVLDARDPLGCRCPQVEEAIVQSGQKKLVLILNKSDLVPKENLESWLNYLKKELPTVVFRASTKPKDKGKITKRVKAKKNAAPFRSEVCFGKEGLWKLLGGFQETCSKAIRVGVIGFPNVGKSSIINSLKQEQMCNVGVSMGLTRSMQVVPLDKQITIIDSPSFIVSPLNSSSALALRSPASIEVVKPMEAASAILSQADARQVVLKYTVPGYRNSLEFFTVLAQRRGMHQKGGIPNVEGAAKLLWSEWTGASLAYYCHPPTSWTPPPYFNESIVVDMKSGFNLEELEKNNAQSIRAIKGPHLANSILFQSSGLTNGIIEEKDIHEELPKRKERKQEEREDDKDSDQETVDEEVDENSSGMFAAEETGEALSEETTAGEQSTRSFILDKIIEEDDAYDFSTDYV [GNL3]”: the melting temperature in the series on HeLa Kyoto [1] (cell cycle stage: G1/S) worked out at 45.3 °C; in the series with HeLa Kyoto [1] (cell cycle stage: mitosis), 50.2 °C. In the series with HeLa Kyoto [2], the “solubility change mitosis (log2)” value was found to be 0.867. In addition, the thermal stability score with HeLa Kyoto [3] (setting [5]) worked out at 5.07; in the series on HeLa Kyoto [3] (cell cycle stage: mitosis), 8.85. The “solubility in G1/S (log2)” value with HeLa Kyoto [4] was -1.72.
For “MKSLKAKFRKSDTNEWNKNDDRLLQAVENGDAEKVASLLGKKGASATKHDSEGKTAFHLAAAKGHVECLRVMITHGVDVTAQDTTGHSALHLAAKNSHHECIRKLLQSKCPAESVDSSGKTALHYAAAQGCLQAVQILCEHKSPINLKDLDGNIPLLLAVQNGHSEICHFLLDHGADVNSRNKSGRTALMLACEIGSSNAVEALIKKGADLNLVDSLGYNALHYSKLSENAGIQSLLLSKISQDADLKTPTKPKQHDQVSKISSERSGTPKKRKAPPPPISPTQLSDVSSPRSITSTPLSGKESVFFAEPPFKAEISSIRENKDRLSDSTTGADSLLDISSEADQQDLLSLLQAKVASLTLHNKELQDKLQAKSPKEAEADLSFDSYHSTQTDLGPSLGKPGETSPPDSKSSPSVLIHSLGKSTTDNDVRIQQLQEILQDLQKRLESSEAERKQLQVELQSRRAELVCLNNTEISENSSDLSQKLKETQSKYEEAMKEVLSVQKQMKLGLVSPESMDNYSHFHELRVTEEEINVLKQDLQNALEESERNKEKVRELEEKLVEREKGTVIKPPVEEYEEMKSSYCSVIENMNKEKAFLFEKYQEAQEEIMKLKDTLKSQMTQEASDEAEDMKEAMNRMIDELNKQVSELSQLYKEAQAELEDYRKRKSLEDVTAEYIHKAEHEKLMQLTNVSRAKAEDALSEMKSQYSKVLNELTQLKQLVDAQKENSVSITEHLQVITTLRTAAKEMEEKISNLKEHLASKEVEVAKLEKQLLEEKAAMTDAMVPRSSYEKLQSSLESEVSVLASKLKESVKEKEKVHSEVVQIRSEVSQVKREKENIQTLLKSKEQEVNELLQKFQQAQEELAEMKRYAESSSKLEEDKDKKINEMSKEVTKLKEALNSLSQLSYSTSSSKRQSQQLEALQQQVKQLQNQLAECKKQHQEVISVYRMHLLYAVQGQMDEDVQKVLKQILTMCKNQSQKK [RAI14]”, the results for the melting temperature in the series on HeLa Kyoto [1] (cell cycle stage: G1/S) and in the series with HeLa Kyoto [1] (cell cycle stage: mitosis) were 49.7 °C and 50 °C, respectively. Besides, in the series with HeLa Kyoto [2], the “solubility change mitosis (log2)” value is 0.267. Also, the thermal stability score in the series with HeLa Kyoto [3] (setting [5]) came to 0.622; in the series with HeLa Kyoto [3] (cell cycle stage: mitosis), 0.688. The “solubility in G1/S (log2)” value in the series on HeLa Kyoto [4] is -0.263.
